Measurements as given in patent US20240199740A1 (Ablynx, published 2024).

Experiments:
[1] = target: T1, cynomolgus TCR/CD3 expressed on cells (cynomolgus); experiment: flow cytometry competition, HSC-F cells, competitor T017000099 (500 nM)
T1 construct: whole, on cells; Native complex with CD3 chains; the cell type is named under assay or readout; also called cyno TCR/CD3; CD3/TCR expressed on HSC-F

[2] = target: T2, cynomolgus CD123 expressed on HEK Flp-In cells (cynomolgus); experiment: flow cytometry competition, HEK Flp-In cyCD123 cells, competitor A0110056A10-Alexa647 (0.9 nM)
T2 construct: EHH61867.1; also called cyCD123; cyno CD123
T2 chain: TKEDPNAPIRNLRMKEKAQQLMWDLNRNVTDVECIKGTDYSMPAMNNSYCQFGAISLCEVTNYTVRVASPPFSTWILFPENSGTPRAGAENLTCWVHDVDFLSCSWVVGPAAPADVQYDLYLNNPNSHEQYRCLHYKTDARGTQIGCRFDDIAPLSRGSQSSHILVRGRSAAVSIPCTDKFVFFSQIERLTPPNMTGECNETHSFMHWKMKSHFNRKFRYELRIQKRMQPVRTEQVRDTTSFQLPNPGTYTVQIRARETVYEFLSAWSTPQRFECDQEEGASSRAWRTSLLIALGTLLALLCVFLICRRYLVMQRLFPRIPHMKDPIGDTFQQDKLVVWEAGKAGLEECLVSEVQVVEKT

[3] = target: T3, human CD123 expressed on cells (human, UniProt P26951 19-378); experiment: cell-based or functional assay
[4] = target: T3, human CD123 expressed on cells; experiment: flow cytometry competition, CHO Flp-In huCD123 cells, competitor A0110056A10-Alexa647 (0.9 nM)
[5] = target: T1, cynomolgus TCR/CD3 expressed on cells; experiment: cell-based or functional assay
[6] = target: T1, cynomolgus TCR/CD3 expressed on cells; experiment: cell-based or functional assay; remark: listed apart in the source
[7] = target: T3, human CD123 expressed on cells; experiment: cell-based or functional assay; remark: listed apart in the source
[8] = target: T3, human CD123 expressed on cells; experiment: cell-based or functional assay; remark: listed apart in the source
[9] = target: T3, human CD123 expressed on cells; experiment: flow cytometry competition, MOLM-13 cells, competitor A0110056A10-Alexa647 (0.4 nM)
[10] = target: T3, human CD123 expressed on cells; experiment: cell-based or functional assay; remark: listed apart in the source
[11] = target: T4, recombinant human CD123 protein (R&D Systems, 301-R3/CF) (human, UniProt P26951 19-305); experiment: SPR (ProteOn XPR36), CD123 immobilized
T4 construct: Bought recombinant His-tagged extracellular domain of human CD123; also called recombinant CD123; in house biotinylated-CD123 recombinant protein; not shown: His tag of the bought protein
T4 sequence: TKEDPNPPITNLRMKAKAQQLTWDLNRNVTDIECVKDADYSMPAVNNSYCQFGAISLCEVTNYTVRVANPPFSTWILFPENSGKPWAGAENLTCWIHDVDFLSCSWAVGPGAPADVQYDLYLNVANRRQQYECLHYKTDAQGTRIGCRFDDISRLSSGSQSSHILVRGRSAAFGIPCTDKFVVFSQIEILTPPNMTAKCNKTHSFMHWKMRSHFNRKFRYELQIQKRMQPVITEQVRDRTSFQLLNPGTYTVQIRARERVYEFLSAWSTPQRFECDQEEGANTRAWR

human CD123 [12] = target: T5, human CD123 (human, UniProt P26951 19-378); experiment: cell-based or functional assay
human CD123 [13] = target: T5, human CD123; experiment: cell-based or functional assay; remark: listed apart in the source

B1: T017000128 (bispecific antibody)
chain: DVQLVESGGGLVQPGGSLRLSCVASGDVHKINFLGWYRQAPGKEREKVAHISIGDQTDYADSAKGRFTISRDESKNMVYLQMNSLKPEDTAVYFCRAFSRIYPYDYWGQGTLVTVSSGGGGSGGGGSGGGGSGGGGSGGGGSGGGGSGGGGSEVQLVESGGGLVQAGGSLRLSCAASGITSKINDMGWYRQTPGNYREWVASITATGTTNYRDSVKGRFTISRDNAKSTVYLQMNSLKPEDTTVYYCNTFPPISNFWGQGTLVTVSSA
notes: Multispecific Nanobody polypeptide expressed in Pichia
IC50 [1]: 630 nM | IC50 [2]: 31 nM | EC50 (M), human IL-6 secretion during human T cell mediated killing of CD123 transfected adherent target cells [3]: 6.9e-11 M | IC50 [4]: 5.8 nM | % lysis, redirected cyno T cell mediated killing of KG1a cells, flow cytometry [5]: 38% | EC50 (M), redirected cyno T cell mediated killing of KG1a cells, flow cytometry [5]: 3.2e-10 M | % lysis, redirected cyno T cell mediated killing of MOLM-13 cells, flow cytometry, E:T 10:1 [6]: 50% | EC50 (M), redirected cyno T cell mediated killing of MOLM-13 cells, flow cytometry, E:T 10:1 [6]: 1.8e-10 M | % lysis, redirected human T cell mediated killing of KG1a cells, flow cytometry, E:T 10:1 [7]: 28% | EC50 (M), redirected human T cell mediated killing of KG1a cells, flow cytometry, E:T 10:1 [7]: 8.7e-10 M | % lysis, redirected human T cell mediated killing of MOLM-13 cells, flow cytometry, E:T 10:1 [8]: 20% | EC50 (M), redirected human T cell mediated killing of MOLM-13 cells, flow cytometry, E:T 10:1 [8]: 1.5e-10 M | IC50 [9]: 3.1 nM | EC50 (M), IFN-γ secretion by cynomolgus T cells during killing of CD123 transfected adherent target cells [10]: 1e-10 M | EC50 (M), IFN-γ secretion by human T cells during killing of CD123 transfected adherent target cells [10]: 8.6e-11 M

B2: T017000116 (bispecific antibody)
chain: EVQLVESGGGLVQAGGSLRLSCAASGITSKINDMGWYRQTPGNYREWVASITATGTTNYRDSVKGRFTISRDNAKSTVYLQMNSLKPEDTTVYYCNTFPPISNFWGQGTLVTVSSGGGGSGGGGSGGGGSGGGGSGGGGSGGGGSGGGGSEVQLVESGGGLVQAGGPLRLSCAASGRTFSSYVMGWFRQAPGKEREFVAAIYWSNGKTQYTDSVKGRFTISGDNAKNTVYLQMNSLNPEDTAVYYCVADKDETGFRTLPIAYDYWGQGTLVTVSSGGGGSGGGGSGGGGSGGGGSGGGGSGGGGSGGGGSEVQLVESGGGLVQPGGSLRLSCVASGDVHKINFLGWYRQAPGKEREKVAHISIGDQTDYADSAKGRFTISRDESKNMVYLQMNSLKPEDTAVYFCRAFSRIYPYDYWGQGTLVTVSS
notes: Multispecific Nanobody polypeptide expressed in Pichia; also called A0110056A10-35GS-A0110055F03-35GS-T0170056G05-FLAG3-HIS6; not shown: C-terminal FLAG3-HIS6 tag
Kd [11]: 0.88 nM | IC50 [2]: 5.6 nM | EC50 (M), human IL-6 secretion during human T cell mediated killing of CD123 transfected adherent target cells [3]: 9.6e-09 M | IC50 [4]: 1.6 nM | % lysis, redirected cyno T cell mediated killing of KG1a cells, flow cytometry [5]: 14% | EC50 (M), redirected cyno T cell mediated killing of KG1a cells, flow cytometry [5]: 3.7e-10 M | % lysis, redirected cyno T cell mediated killing of MOLM-13 cells, flow cytometry, E:T 10:1 [6]: 15% | EC50 (M), redirected cyno T cell mediated killing of MOLM-13 cells, flow cytometry, E:T 10:1 [6]: 3.9e-10 M | % lysis, redirected human T cell mediated killing of KG1a cells, flow cytometry, E:T 10:1 [7]: 5% | EC50 (M), redirected human T cell mediated killing of KG1a cells, flow cytometry, E:T 10:1 [7]: 4.2e-10 M | % lysis, redirected human T cell mediated killing of MOLM-13 cells, flow cytometry, E:T 10:1 [8]: 17% | EC50 (M), redirected human T cell mediated killing of MOLM-13 cells, flow cytometry, E:T 10:1 [8]: 2.2e-10 M | IC50 [9]: 1.8 nM | EC50 (M), IFN-γ secretion by human T cells during killing of CD123 transfected adherent target cells [10]: 8.1e-09 M

B3: T017000135 (bispecific antibody)
chain: DVQLVESGGGLVQAGGPLRLSCAASGRTFSSYVMGWFRQAPGKEREFVAAIYWSNGKTQYTDSVKGRFTISGDNAKNTVYLQMNSLNPEDTAVYYCVADKDETGFRTLPIAYDYWGQGTLVTVSSGGGGSGGGGSGGGGSGGGGSGGGGSGGGGSGGGGSEVQLVESGGGLVQPGGSLRLSCVASGDVHKINFLGWYRQAPGKEREKVAHISIGDQTDYADSAKGRFTISRDESKNMVYLQMNSLKPEDTAVYFCRAFSRIYPYDYWGQGTLVTVSSGGGGSGGGGSGGGGSGGGGSGGGGSGGGGSGGGGSEVQLVESGGGLVQAGGSLRLSCAASGITSKINDMGWYRQTPGNYREWVASITATGTTNYRDSVKGRFTISRDNAKSTVYLQMNSLKPEDTTVYYCNTFPPISNFWGQGTLVTVSSA
EC50 (M), human IL-6 secretion during human T cell mediated killing of CD123 transfected adherent target cells [3]: 5.9e-10 M | % lysis, redirected human T cell mediated killing of KG1a cells, flow cytometry, E:T 10:1 [7]: 18% | EC50 (M), redirected human T cell mediated killing of KG1a cells, flow cytometry, E:T 10:1 [7]: 5.1e-11 M | % lysis, redirected human T cell mediated killing of MOLM-13 cells, flow cytometry, E:T 10:1 [8]: 33% | EC50 (M), redirected human T cell mediated killing of MOLM-13 cells, flow cytometry, E:T 10:1 [8]: 1.1e-11 M | EC50 (M), IFN-γ secretion by human T cells during killing of CD123 transfected adherent target cells [10]: 2e-09 M

B4: T017000129 (bispecific antibody)
chain: DVQLVESGGGLVQPGGSLRLSCVASGDVHKINFLGWYRQAPGKEREKVAHISIGDQTDYADSAKGRFTISRDESKNMVYLQMNSLKPEDTAVYFCRAFSRIYPYDYWGQGTLVTVSSGGGGSGGGGSGGGGSGGGGSGGGGSGGGGSGGGGSEVQLVESGGGLVQAGDSLRLSCAASGRTFSSYAMGWFRQAPGKEREFVAAISWSDGSTYYADSVKGRFTISRDNAKNTVYLQMNSLKPEDTAVYYCAADLTSTNPGSYIYIWAYDYWGQGTLVTVSSA
notes: Control: anti-TCR Nanobody linked to the irrelevant anti-RSV Nanobody; also called irrelevant multivalent polypeptide T017000129
IC50 [1]: 520 nM

B5: T017000138 (bispecific antibody)
chain: DVQLVESGGGLVQPGGSLRLSCVASGDVHKINFLGWYRQAPGKEREKVAHISIGDQTDYADSAKGRFTISRDESKNMVYLQMNSLKPEDTAVYFCRAFSRIYPYDYWGQGTLVTVSSGGGGSGGGGSGGGGSGGGGSGGGGSGGGGSGGGGSEVQLVESGGGLVQAGGSLRLSCAASGITSKINDMGWYRQTPGNYREWVASITATGTTNYRDSVKGRFTISRDNAKSTVYLQMNSLKPEDTTVYYCNTFPPISNFWGQGTLVTVSSGGGGSGGGGSGGGGSGGGGSGGGGSGGGGSGGGGSEVQLVESGGGLVQAGGPLRLSCAASGRTFSSYVMGWFRQAPGKEREFVAAIYWSNGKTQYTDSVKGRFTISGDNAKNTVYLQMNSLNPEDTAVYYCVADKDETGFRTLPIAYDYWGQGTLVTVSSA
EC50 (M), redirected cynomolgus T cell mediated killing of MOLM-13 cells, flow cytometry, E:T 10:1 (human CD123 [12]): 1.5e-10 M | EC50 (M), redirected human T cell mediated killing of MOLM-13 cells, flow cytometry, E:T 10:1 (human CD123 [12]): 1.1e-10 M | % lysis, redirected cynomolgus T cell mediated killing of KG1a cells, flow cytometry, E:T 10:1 (human CD123 [13]): 21% | % lysis, redirected human T cell mediated killing of KG1a cells, flow cytometry, E:T 10:1 (human CD123 [13]): 64% | EC50 (M), redirected cynomolgus T cell mediated killing of KG1a cells, flow cytometry, E:T 10:1 (human CD123 [13]): 2.8e-11 M | EC50 (M), redirected human T cell mediated killing of KG1a cells, flow cytometry, E:T 10:1 (human CD123 [13]): 1.6e-10 M

B6: T017000138 (bispecific antibody)
chain: B5 chain
notes: as for B1
IC50 [1]: 440 nM | IC50 [2]: 12 nM | EC50 (M), human IL-6 secretion during human T cell mediated killing of CD123 transfected adherent target cells [3]: 3.8e-11 M | IC50 [4]: 3.6 nM | % lysis, redirected cyno T cell mediated killing of KG1a cells, flow cytometry [5]: 38% | EC50 (M), redirected cyno T cell mediated killing of KG1a cells, flow cytometry [5]: 8.8e-11 M | % lysis, redirected cyno T cell mediated killing of MOLM-13 cells, flow cytometry, E:T 10:1 [6]: 47% | EC50 (M), redirected cyno T cell mediated killing of MOLM-13 cells, flow cytometry, E:T 10:1 [6]: 1.7e-11 M | % lysis, redirected human T cell mediated killing of KG1a cells, flow cytometry, E:T 10:1 [7]: 24% | EC50 (M), redirected human T cell mediated killing of KG1a cells, flow cytometry, E:T 10:1 [7]: 2.8e-10 M | % lysis, redirected human T cell mediated killing of MOLM-13 cells, flow cytometry, E:T 10:1 [8]: 22% | EC50 (M), redirected human T cell mediated killing of MOLM-13 cells, flow cytometry, E:T 10:1 [8]: 2.3e-11 M | IC50 [9]: 3.5 nM | EC50 (M), IFN-γ secretion by cynomolgus T cells during killing of CD123 transfected adherent target cells [10]: 8.7e-10 M | EC50 (M), IFN-γ secretion by human T cells during killing of CD123 transfected adherent target cells [10]: 4e-10 M
